Measurements published in the DeepSol protein solubility set.

Assay: soluble on expression in E. coli; label from the status in PepcDB or PDB records

| Sequence | soluble on expression in E. coli |
| --- | --- |
| MGSDKIHHHHHHMKIALDPYMIRHLPLDRLPHAVAELGYDQIELSPRSDFLDWWVMPRATRARMTAFRHALRASGVGLASLQPMYRWASPFEDERQWAVRCWKKAIEVATEMECALMVSEFGRGASPERSVGERPGANPKELCEAAWFRSMDELLPILERERIVLSVEPHPEDWIEQLQPAIDIVTNLGSPSLKLSYIAPHTFYYGDDMAAMIAQAAPILAHVRVADTFDHRKSSQLRYIVNPPGSNQIRVHQHLDIGQGEIDWDTFFRALGDAGFDGVMSSCVFAWEDRAEASSRYMRDTIQRYVDRHFDRAAAR | not soluble |
| MGSDKIHHHHHHMKIDVEAFRVLSILVEEGSFSKAAERLHKAQSAVSYQVKKLEQHLGVKLFCRDQYRAELTPEGKVILAEGKRLLQYLGNIEHLASRFSEGWEPKLELVVDGSLPMEPIMRALKRVSEHKIPTKIQLNMEFLGGVQHRFERDNADLMLVKDYRTGPNYRPQPLPDINSILVVSRSHPLAKAKELSLFELLQHVELTIEDSSPGKIHSDELQFGGDKVFYLSGFIMKKNALLMGLGFGWMPDFLIQEELASGELQELDFLGGSRYSFTPQLVSTMERPLGRAGRLFTSLILEEFNLYQAQASR | not soluble |
| MGSDKIHHHHHHMKIGIIGAGRVGCSIGKYLRTKDIELAGYYDVDSAAAKEAAEFTRTESFDSLKQLADQSQIIFITTPDSFIIPVWEQLKELSLTNQIICHCSGALSSDSFSGRESMSVSCCSIHPMLPFSNKFSSYEQLNKAFFTVEGQDAAVEAISGLFCSIGNEVCRIDGAKKAKYHAAASILSNQVIAVLDMGYSLLEDCGFTRAEAVRATGQLVMRNIENVLEAGCDGALTGPIERNDIETVKKHIACMQNDDSDDVRLYKMLGTKLVNIAEKKNPDKDYTQMMELLRG | not soluble |
| MGSDKIHHHHHHMKIILANPRGFCAGVDRAISIVELALEIHGAPIYVRHEVVHNRFVVDGLRDRGAIFVEELDEVPNGAIVIFSAHGVSQAVRQEAKERNLKVFDATCPLVTKVHMQVARASRKGTKAILIGHEGHPEVIGTMGQYDNDKGGIYLVEDVEDIAKLTLRNDEDITFMTQTTLSIDDTADVIEVLKQKYPAIQGPRKNDICYATTNRQQAVRELAELSDLVIVVGSKNSSNSNRLAELASRMGVTAKLIDDANDIEVSWLNNVKVIGLTAGASAPEILVQSVISRLKELGVDEVEELEGCEENTVFEVPKELRINKVE | not soluble |
| MGSDKIHHHHHHMKILIYGAGVLGSYAAYELKRVGHEVTILARSSRYEELKEKGLVIRHWFQRKTTKNKINVVKELLPEEYYDAVFIVMQSSQTNAILPVITANVKCPLFVFVGNQDKAKDISEKIKSTSKSNPRVLFGFFSIGGRREGGKVISVHTKHPDFDIGDLEGRDDYKIIIEKIFKETSFKLHYHVNMDDFFKTHIVVIMPLAYLAYMSNCDLRKIAWNRKALNAVIDAMIEGHEVLIKLGHKVDPESSERLLRNHRKVAYLGLKVCAMTPLGKLGISDHCKSGWREMEYLDKRLLEWAKKSNLETPNINKLREHLIKYVHKKVI | not soluble |
| MGSDKIHHHHHHMKIPKRLQPLVDDGLIDDVLQRLKSGKEADVYTVLCGDKIQCAKVYKEAMQRSFKQAVQYQEGRKVRNTRNARAMQKSSKFGRKQQEESWQTAEVEALFRLANAGVRVPQPYICIDGVLLMELVTDVDGAVAPRLSDVILTEESAIADFDTMIRNIVRMLCVGIVHGDLSEFNVLIDAQGPVIIDLPQAVDAAANNHAESMFARDVNNITAYYGQFAPQLLQTRYAQEIWMLYEDGKLTPETALTGLFVEAVHEVDMGSLIDEIIAAEDEFYERQRAKKERDDE | not soluble |
| MGSDKIHHHHHHMKIVAIDTSTKQLSVALSDGQQILAEASYVTSLNHATKLMPLLERMMQEVNWSPRDLTRIVIADGPGSYTGLRIGATTAKTLAYTLGIDLVPVSTLELMAASAGSTGRIVAIQDARRGTGFVGFYEEGQLVGEEQHTVIADFVKTLPTDTKITGDTDKFTTELQSFTIVDPAFRAPRAGVLALLGAKREPVETHAFEPRYLRLAEAEAKWIEAQRHD | not soluble |
| MGSDKIHHHHHHMKKIQLTNAHKEKLFQIPLFRDLPLNIKESLLDKLDFVIYAADKKEIVVTQGTPCNKLYVLLEGKLRTDIIDGLGNEVMIEYIIAPRTFATPHLFNSNNTLPATFTALEDSVVLMATKDSTFKVISQDPQVLHNFLCIAGNCNICTVSRLKPLSRKTVRERFIVYLFEHKKKDSLTVEIMHTQSQLAEYLNVSRPALSKEINKIIKEGLITMEGKKIEILNKMALEKYL | not soluble |
